The RNAGym collection of RNA variant scans (doi:10.1073/pnas.2313332121)

B1: TPR t1 (parent)
chain: GACCAAUCUGCCCUCAGAGCUCGAGAACAUCUUCGGAUGCAGAGGAGGCAGGCUUCGGUGGCGCGAUAGCGCCAACGUCCUCAACCUCCAAUGCAUCCCACCACAUGAUGAUGCCUGAAGAGCCUUGGUUUUUUG

Variants of: B1
Test: polymerase ribozyme fitness, log enrichment relative to wild type (log ratio); higher = more active; in vitro selection for triplet polymerase activity
Procedure, shortened: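 The heterodimeric triplet polymerase ribozyme's subunits were each mutagenized into PCR-built libraries and transcribed. Every library was selected once, in triplicate, by annealing with a biotinylated primer, the partner subunit and triplets, incubating frozen at −7 °C, gel-excising extended constructs, capturing on streptavidin beads and running RT-PCR. Input and output libraries were Illumina-sequenced, with genotypes kept only at ≥10 input reads and ≥1 read per output. Fitness, from inverse-variance-weighted replicate averages, is the base-2 logarithm of genotype enrichment over wild-type enrichment.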

| Variant | polymerase ribozyme fitness (log ratio) |
| --- | --- |
| GACCAAUCUGCCCUCAGAGCUCGAGAACAUCUUCGGAUGCAGAGGAGGCAGACUUCGGUGGCGCGGUAGCGCCAACGUCCUCAACCUCCAAUGCAUCCCACCACAUGAUGAUGCCUGAAGAGCCUUGGUUUUUUG [G52A A66G] | -1.47 |
| GACCAAUCUGCCCUCAGAGCUCGAGAACAUCUUCGGAUGCAGAGGAGGCAGCCUUCGGUGGCGCGAUAGCGACAACGUCCUCAACCUCCAAUGCAUCCCACCAUAUGAUGAUGCGCGAAGAGCCUGGGUUUUUUG [G52C C72A C104U C115G U116C U126G] | -6.41 |
| GACCAAUCUGCCCUCAGAGCUCGAGAACAUCUUCGGAUGCAGAGGAGGCAGACUUCGGUGGCGCGAUAGCGCCGACGGCAUCAACCUCCAAUGCAUCCCACCACAUGAUGAUGCCUGAAGAGCCUUGGUUUUUUG [G52A A74G U78G C80A] | -3.14 |
| GACCAAUCUGCCCUCAGAGCUCGAGAACAUCUUCGGAUGCAGAGGAGGCAGACUUCGGUGGCUCGAUAGCGCCAACGUCCUCAACCUCCAAUGCAUCCCACCACAUGAUGAUGACUGAAGAGCCUUGGUUUUUUG [G52A G63U C114A] | -3.58 |
| GACCAAUCUGCCCUCAGAGCUCGAGAACAUCUUCGGAUGCAGAGGAGGCAGACUUCGGAGGCGCGAUAGCGCCAACGUCCUCAACCUCCAAUGCAUCCCACCACAUGAUGAUGCCUGAAGAGCCUUGGUUUUUUG [G52A U59A] | 0.487 |
| GACCAAUCUGCCCUCAGAGCUCGAGAACAUCUUCGGAUGCAGAGGAGGCAGACUUCGGUGGCGCGAUAGCGCCAACGUCCUCAACCUCCAAUGCAUCUCACCACAUGAUGAUGCCUGAAGAGCCUUGGUUUUUUG [G52A C98U] | -1.13 |
| GACCAAUCUGCCCUCAGAGCUCGAGAACAUCUUCGGAUGCAGAGGAGGCAGCCUUCGGUGGCGCGAUAGCGACAACGUCCUCAACCUCCAAUGCAUCCCACCACAUGAUGAUGCCUGAAGAGCCUUGGUUUUUUG [G52C C72A] | -1.99 |
| GACCAAUCUGCCCUCAGAGCUCGAGAACAUCUUCGGAUGCAGAGGAGGCAGACUUCGGUGGCGCGAUAGCGCCAACGUCCUCAACCUCCAAUGCAUCCCAUCACAUGAUGAUGCCUGAAGAGCCUUGGUUUUUUG [G52A C101U] | 0.00367 |
| GACCAAUCUGCCCUCAGAGCUCGAGAACAUCUUCGGAUGCAGAGGAGGCAUGCUUCGGUGGCGCGAUAGCGCCAACGUCCUCAACCUCCAAUGCAUCCCACCACAUGAUGAUGCCCGAAGAGCCUUGGUUUUUUG [G51U U116C] | -4.25 |
| GACCAAUCUGCCCUCAGAGCUCGAGAACAUCUUCGGAUGCAGAGGAGGCAGACUUCGGUGGCGCGAUAGCGCCAACGUCCUCAACCUCCAAUGCAUCCCACCACAUGAAGAUGCCUGAAGAGCCUUGGUUUUUUG [G52A U109A] | -5.76 |
| GACCAAUCUGCCCUCAGAGCUCGAGAACAUCUUCGGAUGCAGAGGAGGCAGACUUCGGUGGCGCGAUAGCGCCAACGUACUCAACCUCCAAUGCAUCCCACCACAUGAUCAUGCCUGAAGAGCCUUGGUUUUUUG [G52A C79A G110C] | -5.08 |
| GACCAAUCUGCCCUCAGAGCUCGAGAACAUCUUCGGAUGCAGAGGAGGCAGACUUCGGUGACGCGAUAGCGCCAACGUCCUCAACCUCCAAUGCAUCCCACCACAUGAUGAUGCCUGAAGAGCCUUGGUUUAUUG [G52A G61A U132A] | -0.488 |
| GACCAAUCUGCCCUCAGAGCUCGAGAACAUCUUCGGAUGCAGAGGAGGCAGACUUCGGUGGCGCGAUAGCGCCGACGUCCUCAACCUCCAAUGCAUCCCACCACAUGAUGAUGCCUGAAGAACUUUGGUUUUUUG [G52A A74G G122A C124U] | 0.026 |
| GACCAAUCUGCCCUCAGAGCUCGAGAACAUCUUCGGAUGCAGAGGAGGCAGAAUUCGGUGGCGCGAUAGCGCCGACGUCCUCAACCUCCGAUGCAUCCCACCACAUGAUGAUGCCUGAAGAGCCUUGGUUUUUUG [G52A C53A A74G A90G] | 0.00151 |
| GACCAAUCUGCCCUCAGAGCUCGAGAACAUCUUCGGAUGCAGAGGAGGCAGUCUUCGGUGGCGCGAUAGCGCCGACGUCCUCAGCCUCCAAUGCAUCCCACCACAUGAUGAUGCCUGAAGUGCCUUGGUUUUUUG [G52U A74G A84G A121U] | 0.168 |
| GACCAAUCUGCCCUCAGAGCUCGAGAACAUCUUCGGAUGCAGAGGAGGCAGACUCACGUGGCGCGAUAGCGCCAACGUCCUCAACCUCCAAUGCAUCCCACCACAUGAUGAUGCCUGAAGAGCCUUGGUUUUUUG [G52A U55C C56A G57C] | 0.195 |
| GACCAAUCUGCCCUCAGAGCUCGAGAACAUCUUCGGAUGCAGAGGAGGCAGACUUCGGUGGCGCGAUAGCGCCAACGUCCUCAACCUCCCAUGCAUCCCUCCACAUGAUGGUGCCUGAAGAGCCUUGGUUUUUUG [G52A A90C A100U A111G] | -2.82 |
| GACCAAUCUGCCCUCAGAGCUCGAGAACAUCUUCGGAUGCAGAGGAGGCAGUCUUCGGUGGCGCGAUAGCGCCAACGUCCUCCACCUCCAAUGCAUCCCAGCACAUGAUGAUGCUUGAAGAGCCUUGGUUUUUUG [G52U A83C C101G C115U] | -4.77 |
| GACCAAUCUGCCCUCAGAGCUCGAGAACAUCUUCGGAUGCAGAGGAGGCAGUAUUCGGUGGCGCGAUAGCGCCAACGUCCUCAACCUCCAAUGCAUCCCACCACAUGAUGAUGCCUGAAGAGCCUUGGUUUUUUG [G52U C53A] | -1.2 |
| GACCAAUCUGCCCUCAGAGCUCGAGAACAUCUUCGGAUGCAGAGGAGGCAGUGCUCGGUGGCGCGAUAGCGCCAACGCCCUCAACCUCCAAUGCAUUCCACCACAUGAUGAUGCCUGAAGAGCCUUGGUUUUUUG [G52U C53G U54C U78C C97U] | -1.14 |
| GACCAAUCUGCCCUCAGAGCUCGAGAACAUCUUCGGAUGCAGAGGAGGCAGCCUUCGGUGGCGUGAUAGCGCCAACGUCCUCAUCCUCCAAUGCAUCCCACCAAAUGAUGAAGCCUGAAGAGCCUUGGUUUUUUG [G52C C64U A84U C104A U112A] | -1.62 |

| Variant | polymerase ribozyme fitness (log ratio) |
| --- | --- |
| GACCAAUCUGCCCUCAGAGCUCGAGAACAUCUUCGGAUGCAGAGGAGGCAGACUUCGGUGGCGCGAUAGCGCCAACGUCCUCAACCUCCAAUGCAUCCCACCACAGGAUGCUGCCUGAAGAGCCUUGGUUUUUUG [G52A U106G A111C] | -2.25 |
| GACCAAUCUGCCCUCAGAGCUCGAGAACAUCUUCGGAUGCAGAGGAGGCAGACUUCGGUGGCCCGAUAGCGCCAACGUCCUCAACCUCCAAUGCAUCCCACCACAUGAUGAUGCCUGAAGAGCCUUGGUUUUUUG [G52A G63C] | -0.879 |
| GACCAAUCUGCCCUCAGAGCUCGAGAACAUCUUCGGAUGCAGAGGAGGCAGACUUCGGUGGCGCGAUAGCGCCAACGUCCUCAACCUCCAAUGCAUCCCACCACAUGAUGAUGCCUGAAGAGCCUUGGUUUUUUU [G52A G135U] | -1.86 |
| GACCAAUCUGCCCUCAGAGCUCGAGAACAUCUUCGGAUGCAGAGGAGGCAGACUUCGGUGGCGCGAUAGCCCCAACGUCCUCAACCUCCAAUGCAUCCCACCACAUGAUGAUGCCUGAAGAGCCUUGGUUUUUUG [G52A G71C] | -3.42 |
| GACCAAUCUGCCCUCAGAGCUCGAGAACAUCUUCGGAUGCAGAGGAGGCAGACUUCGGUGGCGCGAUAGCGCCAACGUCCUCAACCUCCAAUGCAUCCCACCACAUGAUGAUGCCUGAAGAGCUUUGGUUUUUUG [G52A C124U] | 0.924 |
| GACCAAUCUGCCCUCAGAGCUCGAGAACAUCUUCGGAUGCAGAGGAGGCAGACUUCGGUUGCGCGAUAGCGCCAACGUCCUCAACCUCCAAUGCAUCCCACCAGAUGAUGAUGCCUGAAGAGCCUUGGUUUUUUG [G52A G60U C104G] | -7.51 |
| GACCAAUCUGCCCUCAGAGCUCGAGAACAUCUUCGGAUGCAGAGGAGGCAGACUUCGGUGGCGCGAUAGCGGCAACGUCCUCAACCUCCAAUGCAUCCCACCACAUGAUGAUGCCUGAAGAGCCUUGCUGUUUUG [G52A C72G G128C U130G] | -1.87 |
| GACCAAUCUGCCCUCAGAGCUCGAGAACAUCUUCGGAUGCAGAGGAGGCAGACUUCGGUGGCGCGAUAACGCCAACGUCCUCAACCUCCCAUGCAUCCCACCACAUGAUGAUGCCGCGAGAGCCUUGGUUUUUUG [G52A G69A A90C U116G G117C A118G] | -6.12 |
| GACCAAUCUGCCCUCAGAGCUCGAGAACAUCUUCGGAUGCAGAGGAGGCAGCCUUCGGUGGCGCGAUAGCGCCAACGUCCUCAACCUCCAAUGCAUCCCACCACAUGAUGAUGCCUGAGGAGCUUUGGUUUUUUG [G52C A119G C124U] | 1.65 |
| GACCAAUCUGCCCUCAGAGCUCGAGAACAUCUUCGGAUGCAGAGGAGGCAUGCUUCGGUGGCGCGAUAGCGCCAACGUCCUCAACCUCCAAUGCAUCCCACCACAUGAUGAAGCCUGUAGAGCCUUGGUUUUUUG [G51U U112A A118U] | -3.5 |
| GACCAAUCUGCCCUCAGAGCUCGAGAACAUCUUCGGAUGCAGAGGAGGCAGACUUCGGUGGCGCGAUAGCGCCAACGUCCUCAACCUCCAAUGCAUCCCACCACAUGAUGAUGACUGAAGAGCCUUGGUUUUUUG [G52A C114A] | -2.73 |
| GACCAAUCUGCCCUCAGAGCUCGAGAACAUCUUCGGAUGCAGAGGAGGCAGACUUCGGUGGCGCGAUAGCGCCAACGUCCUCAACCUCCAAUGCAUCCCACCACAUGAUGAUGUCUGAAGAGCCUUGGUUUUUUG [G52A C114U] | -2.52 |
| GACCAAUCUGCCCUCAGAGCUCGAGAACAUCUUCGGAUGCAGAGGAGGCAGUGUUCGGUCGCGCGAUAGCGCCAACGUCAUCAACCUCCAAUGUAUCCCACCACAUGAUGAUGCCUGAAGAGCCUUGGUUUUUUG [G52U C53G G60C C80A C94U] | -2.08 |
| GACCAAUCUGCCCUCAGAGCUCGAGAACAUCUUCGGAUGCAGAGGAGGCAGACUUCGGUGGCGCGAUAGCGCCAACGUCCUCAACCUCCAAUGCAUCCCACCACAUGAUGAUGCUUGAAGAGCCUUGGUUUUUUG [G52A C115U] | -2 |
| GACCAAUCUGCCCUCAGAGCUCGAGAACAUCUUCGGAUGCAGAGGAGGCAGACUUCGGUGGCGCGAUAUCGCCAACGACCUCAACCUCUAAUGCAUCCCACCACAUGAUGAUGCCUGAAGAGCCUUGUUUUUUUG [G52A G69U U78A C89U G128U] | -2.93 |
| GACCAAUCUGCCCUCAGAGCUCGAGAACAUCUUCGGAUGCAGAGGAGGCAGACUUCGGUGGCGCGAUAGCGCCAACGCCCUCAACAUCCAAUGCAUCCCACCACAUGAUGAUGCCUGAAGAGCGUUGAUUUUUUG [G52A U78C C86A C124G G128A] | -1.71 |
| GACCAAUCUGCCCUCAGAGCUCGAGAACAUCUUCGGAUGCAGAGGAGGCAGACUUCGGUGGCGCGAUAGCGCUAACGUCCUUAACCUCCAAUGCAUCCCACCACAUGAUGAUGCCUGAAGAGCCUUGGUUUUUUG [G52A C73U C82U] | -0.555 |
| GACCAAUCUGCCCUCAGAGCUCGAGAACAUCUUCGGAUGCAGAGGAGGCAGACUUCGGUGGCGCGAUAGCGCCAACGUCCUCAACCUCCAAUACAUCCCACCACAUGAUGAUGCCUGAAGAGCCUUGGUUUUUUG [G52A G93A] | -0.652 |
| GACCAAUCUGCCCUCAGAGCUCGAGAACAUCUUCGGAUGCAGAGGAGGCAGCCUUCGGUGGCGCGAUAACGCCAACGUCCUCAACCUCCAAUGCAUCCCACCACAUGAUGAUGUCUGAAGAGCCUUGGUUUUUUG [G52C G69A C114U] | -5.1 |
| GACCAAUCUGCCCUCAGAGCUCGAGAACAUCUUCGGAUGCAGAGGAGGCAUGCUUCGGUGGCGCGAUAGCGCCAACGUCCUCAACCUCCAAUGCAUCCCACCACAUGAUGAUGCCUGAAGAGCCAUGGUUUUUUG [G51U U125A] | -3.77 |
| GACCAAUCUGCCCUCAGAGCUCGAGAACAUCUUCGGAUGCAGAGGAGGCAGACUUCGGUGGCGCGAUAGCGCCAACGUCCUUAACCUCCCAUGCAUCCCACCACAUGAUGAUGCCUCAAGAGCCUUGGUUUUUUG [G52A C82U A90C G117C] | -3.56 |
